Reference: the DeepSol protein solubility set

Test: soluble on expression in E. coli; label from the status in PepcDB or PDB records

Row | Sequence | soluble on expression in E. coli
1 | MSLDVTLTQPSIPDQSEDRRVRTSGSLAGHLPYGMADTLGKHEHLSTVDLVVPRFNASETEMLLGLFDGQALSSGGSKIAKYLHENFGHIFALELKALKTRLNETPVDALRRAFLALNKDLVTIAIQQSEERPIQTHRNSGQPIILTKEDLNSGGVATVVYLQSTELYVANVGDAQAMVIQTDGTHKMLTRKHDPAEPTERSRIREAGGWVSRNGRLNDLLQVSRAFGYVDLMPAVQAAPYVSNMTIREQDDIILIATGELWEYLSPGLVTDVARAERQDLMRAAQKLRDLAIAYGASGKIMVMMISVADEGHHHHHH | soluble
2 | GPGSMGRERMASSWRMPVYRSWQCSTPWSVSLPHPGPALPTLLVRHVCTPVSVCLYTNLSYCSLHAHNSIERLPPPLHAFVPTTHTHTHKHTYICIYACHSPLLRVSTWTKAFCLILRSRTLSTMSTKYLAAYALASLSKASPSQADVEAICKAVHIDVDQATLAFVMESVTGRDVATLIAEGAAKMSAMPAASSGAAAGVTASAAGDAAPAAAAAKKDEPEEEADDDMGFGLFD | not soluble
3 | MGQTVNEDSMDVKKENQEKTPQSSTSSVQRDDFHWEEYLKETGSISAPSECFRQSQIPPVNDFKVGMKLEARDPRNATSVCIATVIGITGARLRLRLDGSDNRNDFWRLVDSPDIQPVGTCEKEGDLLQPPLGYQMNTSSWPMFLLKTLNGSEMASATLFKKEPPKPPLNNFKVGMKLEAIDKKNPYLICPATIGDVKGDEVHITFDGWSGAFDYWCKYDSRDIFPAGWCRLTGDVLQPPGTS | soluble
4 | QYWDLRKTQQTGQCQSREDYYSAFRNEIQQSIRQSIRTDAEIMAHYSGGLDSSSIASIAALQLAKENKTLMAYTAIPKYLSGDSHRKGCKYHELDRVQSACRYYDNIETIVYQSSEDLSIFDKLQVFYPYLDQPFKAVFNMEWILAGLEMAAAKNCRILLNGEQGNGSISWKGVTLGNYLNQRVKFTRHLLKYHMKLGKQFIKSGSLNLKKNRTDLNEMKKNFLEPHYSLLRGKNRLETRSYMRSIYLWFGVEVIDPTSNLDLVQFCYDLPEWVYHGGNKYFEIRRLPKLKRRLLVRDALEGLVPPEIRHNPYRGEQAADWYYQFNKYGHAWGRLLADIAEKHPLIWEIYPKKYLLDLFANHPISPQSRNFQDVNMHLVPALSTAFFINYLNDLY | not soluble
5 | MTWQVQRRKWKLNLIAELESRVLAEPVPLPADPMELKNLEYRPVKVRGCFDHSKELYMMPRTMVDPVREAREGGLISSSTQSGAYVVTPFHCTDLGVTILVNRGFVPRKKVNPETRQKGQIEGEVDLIGMVRLTETRQPFVPENNPERNHWHYRDLEAMARITGAEPIFIDANFQSTVPGGPIGGQTRVTLRNEHLQYIVTWYGLSAATSYLWFKKFLRGTPGV | not soluble
6 | TIVDLEDNVLVIGFGRFSQIVCQTLLIRGISVSVIDRNIENIRAAAKFGFKVYYGDGIRLDVLRAAGIEKAKCVVLGINDTQRIEHIVSQMKEAYPNLPILTRTYDRKTTVSLIKQDVDFIVRETFESAITLSRATLMKLGID | not soluble
7 | MAHHHHHHMKRGGRKKKGTLSNKLGKGKNDPSEDEEVIESETSSDEMGESNSASEESIDSDADNLSDKEQESQAEKQIQIYFTSNVANEKYQMEDTIYTIPATFKRIDLSRMVKKLLDIKENVSFEFLINDQILRSSIEEFLQLNNILSENVIEIKYILSITKKESTPIDKISEWISKLIIIENRLYCSTFGGSALCYDMSNFAKIDARKVADMSIFAFNVCKNDKLIDGEVKYSESVVGLSNGTIRAFLNEEMDQKIVTRSDLYLGNHDDMVKSIAFNKSGSLLITGGADNKINLYDNKEIVQKLKEYKSENDTNKRKMKHVLTPKKCIHKDVGIITTLTFFNSNNHFLCTGLEKNIKIYDADTADLFATLPYGKAIMCSDILNDNLFVTADEQSVIKLFDVRCLEEKAVISMNENKYFFHDKVITSLWGNKNGIHFLSSSHDGFTNIYDVRLNKFPVYTIQTEDKSKVLSSTWFYRESNNYVINADENNLTLHSF | not soluble
8 | MKLEIGYNHPFEIRKERYESDHVCNFSVLYISDLHLTVFSKDICTRLSKCIQELNPTIIILGGDYIDCRNGWDYLSTFFKFLSARKNVFSIAGNHDYFYGIDEIKKLIESNNIHWLENQSAVVNIQEYNILLTGNNETQSSIPADFNILCLHKPVSLDAFKIPYHIAFAGHLHGCQCVFWQNENGLYPGRFFYTFNFLRRQVKNCLYLISKGLGDTLPIRFNCKKDIIFVEIKNNSNKLEHHHHHH | not soluble
9 | ISEFGSMNVILSIDQSTQSTKVFFYDEELNIVHSNNLNHEQKCLKPGWYEHDPIEIMTNLYNLMNEGIKVLKDKYTSVIIKCIGITNQRETVIIWDRITGKPLYNAIVWLDTRVEELVTEFSAKYNNNDIQKKTGTYFNTYFSAFKILWLIQNNPEIKQKIDDGTAVIGNINTWLIFNLTKGNCYTDVTNASRTLLMDINTLQWDEKMCKIFNITNMSVLPEIKSNCSNFGLVKSEHVPDYLNIPITGCIGDQQSACIGQAIFDEGEAKCTYGTGVFLLINTGEKVVYSTCGLITTICYKFNDNDKPKYALEGSIGTAGSGVSWLLKNKLIDDPSEASDIMEKCENTTGVIFVPAFSGLYAPRWRSDARASIYGMTFNTERSHIVRALLEGIAFQLNEIVDSLTSDMGIEMLHVLRCDGGMTKNKPFMQFNSDIINTKIEVSKYKEVTSLGAAVLAGLEVKIWDSLDSVKSLLRRSDAVFHSKMDDKKRKKKTSEWNKAVERTLIQL | soluble
10 | MLRLFKIQKAPLSQFSKASNEIVKDFIEKMEKAAGSGDKVKFSDCFTEDFQFFACSFTANKAQFVEKHLTNPNPEPVIPKYSNFDENDSKIKFTVSRRVGPEVNIVDFDLLRENDGPWRLQWGKVTTCP | not soluble
11 | TDPDFLIRLATNLKEEKSKRLEAEQKIEAQRPKVLFADAVSDTEGTILIRDLAKLIQQNGVDIGEKRLFEWLRQNGYLISRRGTDYNRPTQKSMELGLFKIKETAIMRSSGAHTAITAKVTGKGQLYFVNKFLEQSLV | not soluble
12 | MTQSNPFQQYGITSGLAAAAAAKASVLAAMGTISDYVGVPTPIGLRIEVKVEMMKQIDARSGIAAVRKFSGDNPDTLNGALFESRAVIRDDGLINIFAGEGIGVAVSDGLPVRRGDPAINPVARMMIENAVREVSGSAGFDVYISVPGGEDLARDTMNPRVGISGGISILGTTGIEEPVSGPDYEAHIEYLLQTGRCVSTVAVMCPGNTAMRFAESYLRLHPASFILTGDRIGSAIEMAIEKGYREIVVFGLPGKLVKMAAGVMNTHSRIADARFETIAAYAALNGADRDTISKILSSNTVESAFAVLRSIGLLDSVAGAIASRIVERLRSPVWQIRRILLRHDRFRRQAIRVSPVAGHIETGE | not soluble
13 | MSPVVSEASPERWDDETDVLVIGSGAGGLSAALFAAQAGLRVLICEKLAYVGGTTATSGGGIWVPGTKAGLAAGDTLEAARTYLKALLGDFYQEEVIDTYLATGGKVIDFLNENTEVKFDLSSWPDYRSSLPGGATRGRSLFPQPFDGKKLGRNFSLLHPPLHRLMVLGGLMLGPEEVHDFLRPFSSPRALMRVLRKLLRYGMDRIRYARGTDLRSGNALAARLLYSVDKLGCRILTQADLESLAIDHDRVIGATVVVGGVPKRIRASKAVLLATGGFAHNQEMLRRYGPATPHRFSLCNPACTGAGIQAALDAGASVDRELSSVGFWTPASASREKNGADTPVIYGYLDRGRPGVIAVNEQGERFVNEANSYHDIVTAIFANGGADGKPFYFITDREFVRRHGLGLIRPWPWNRSLRPWIRRGYITVASTLDKLGPKIGIDPGALAAAVQRHNQSARTGQDPDFHKGASAYNRMFGHNMTWPNPNLAPIETPPFVALRIHPATIGTAMGLKTSASGQALNAAGQPISGLYACGNNQASPFRGFYPGGGSTLGPAIVGAYLAVQSLSKPLEHHHHHH | soluble
14 | AKDWKWNLNWNGALNKNKVVSLPDNGLERNRQSAYQVYTGNGDEKKWVGGYQEGQRPGDLYMFVAEGLYKSQDEIPANLIDLTTGNNGSSGRPLYGGAEGYNKLTDSQKSNALPIQPGDVKWKDVNNDGVIDNYDMVKVGNTVPKWTGGINTTVSWKDLTLSARFDYALGFTAVDWKTMWIMSCAQGTYNTIEETKNTWTPENPNAKYPTYVWADQLGKRNYCRSSSMFAYNGNYIALRELSLSYKLPSILVQKAKLSNVELSITGQNLGYLTEAKHLFSPEKADNNGGYPLPRTVIFGINVSF | not soluble
15 | MGSDKIHHHHHHMSDVLAYSVPAPAVVFPPMSPAPRVVPIAVQAPRKDALGCTACSMRSICMPQGLTPTELQRIEALICPSRTIKQGETIYRANDSFQSIYVVRVGSFKTVVMHRDGREQVTGFHLAGDSLGLDGVCSGHHSCDAIALEDSKMCIIPFHLLETMCREVKAVQQHVHRMMGGEIVRESSQMMLLGTMSAEQRVAT | not soluble
16 | MEFNKLQLSHCISFYISDVSEVFFESINQHPSRDFVNNILQKIKSTLSEEELEKLNTIEEVTKDEKILIMLNHVLKKIVSKTGSSSCDLFQIVKHDRFNEPVYIQSVNAFENNLINNEFAERRYDYLIEINKHSYLRKYVNAIRISFFLDLRAQILSGSFTLDVINKQLEHQNKEELFQAIYLRSLIKHFISNQLYPISLNSFIFGDKNRENKTVENDKLSVLKNNWNQIFFSKYFDFVAKNKEERVVDNNCD | not soluble
17 | MGSDKIHHHHHHMDIKQIRYFIAIVENHFNLSQAAELLYVSQPTLSMMINDFEKRENVKLFKRKRGRIIGLTYLGDNYYKDAQKVLSLYDDMFLKLHDHSKGLKGSINIGIPPLILSVVFSEVMPKLILENPGIQFNVKEIGAYQLKNELLVGNVDVAVLLSPTGIADNLVETYEIQRSELSVCLSPRHRLASKKVIQWEDLTDEQLALFDPSFMVHHLVLEACERHQVRPNIILTSSSWDFMLNSTKINHNVLTICPKPITELYQLKDIKCIPMERPISWRVVLTRLRKKSYSEIEAYIMDDLLQSFFK | not soluble
18 | MGSSHHHHHHGKTIFVIVPTNEEQVAFLEALAKQDELNFDWQNPPTEPGQPVVILIPSDMVEWFLEMLKAKGIPFTVYVEEGGSENLYFQGGGGGGMPPPLPHRRATRACALVAAVALVLVLPTSRARTVGMRSMSAYTEAQQLHTRKFLDGFVQSMPDLHNIWTGDDFCAWKGVTCLRDGVSVSATNWVQLAVPPGRLPEVSSADVDVSQVFVTSISVRANGRNLSGTLPASWGLLQNLRKVRLESNSLTGSLPPEWSGLRSLRELYLSNNNLTGTLPASWGESMKSLAILSLDRNALAGTLPPEWGRMKSMQALVLESNQLSGTLPAEWRFMRAASTLMIGRNYLSGTLPHEWAEMSVMEWMDLHSNRLTGWLPAAWATMTLLNTLLLFDNGFTGTLPTEWARLEFLEELRMQDNVLVGTLPASWSAMVLMQVLDISENTLSGTLPVLWSSMQSLDTLSIRDNQLSGSLPIEWRTLPKIMHLHLEGNALCGCLPLNWTSRYVAVEVDEAVTSVNCATENACNDVNLDSISDKISSSCSSSTSPNGGRRR | not soluble
19 | MGSDKIHHHHHHMADFSNQIITIKKGLDLPIAGEPRQIIESGNKPSQVAILGEEYVGLKPTMLVEVGDKVKKGQPLFEDKKTKGVLFTAPASGEIVAINRGDRRVLQSVVIGCDGLDVNEQIRFDILPDVISLSRQVVQDQLVSSGLWTALRTRPFSRVPALDSQPAGIFVTAIDTNPLAADPRLIIAEQLEAFKTGLQVLTRLTEGKVYLCQDKGDAIACDVSPNLEIRRFTGVHPAGLAGTHIHFTLPVSLERQVWHIGYQDVIAYGKLFQTGELYTDRIIALGGPSVLNPRLLRTQLGAELSVLVADEIKPGNNRVVSGSVLSGHTAAGVHDFLGRFHNQVSVLAEDAQHQVLPWVRGGSDKFSITRAVTSRLFGASKRFEFTTHQGGSQRAMMAFGQLDRVMPLDILPTLLVRDLVVRDTDEAQALGALELDEEDLALCTFVCPGKYDFGKELRACLDVIEREG | not soluble
